Laboratory results as given in article PMC7469494 (Autophagy, 2019).
Blank lines part the entries; values can stand above or below the binder they belong to.

B3: Vac8[40–515] (domain or fragment, S. cerevisiae, UniProt P39968 40-515, looked up)
chain: QLDFYSGGPLKALTTLVYSDNLNLQRSAALAFAEITEKYVRQVSREVLEPILILLQSQDPQIQVAACAALGNLAVNNENKLLIVEMGGLEPLINQMMGDNVEVQCNAVGCITNLATRDDNKHKIATSGALIPLTKLAKSKHIRVQRNATGALLNMTHSEENRKELVNAGAVPVLVSLLSSTDPDVQYYCTTALSNIAVDEANRKKLAQTEPRLVSKLVSLMDSPSSRVKCQATLALRNLASDTSYQLEIVRAGGLPHLVKLIQSDSIPLVLASVACIRNISIHPLNEGLIVDAGFLKPLVRLLDYKDSEEIQCHAVSTLRNLAASSEKNRKEFFESGAVEKCKELALDSPVSVQSEISACFAILALADVSKLDLLEANILDALIPMTFSQNQEVSGNAAAALANLCSRVNNYTKIIEAWDRPNEGIRGFLIRFLKSDYATFEHIALWTILQLLESHNDKVEDLVKNDDDIINGVRK
B4: Vac8[40–515]^N62R (domain or fragment, S. cerevisiae, UniProt P39968 40-515, looked up)
chain: QLDFYSGGPLKALTTLVYSDNLRLQRSAALAFAEITEKYVRQVSREVLEPILILLQSQDPQIQVAACAALGNLAVNNENKLLIVEMGGLEPLINQMMGDNVEVQCNAVGCITNLATRDDNKHKIATSGALIPLTKLAKSKHIRVQRNATGALLNMTHSEENRKELVNAGAVPVLVSLLSSTDPDVQYYCTTALSNIAVDEANRKKLAQTEPRLVSKLVSLMDSPSSRVKCQATLALRNLASDTSYQLEIVRAGGLPHLVKLIQSDSIPLVLASVACIRNISIHPLNEGLIVDAGFLKPLVRLLDYKDSEEIQCHAVSTLRNLAASSEKNRKEFFESGAVEKCKELALDSPVSVQSEISACFAILALADVSKLDLLEANILDALIPMTFSQNQEVSGNAAAALANLCSRVNNYTKIIEAWDRPNEGIRGFLIRFLKSDYATFEHIALWTILQLLESHNDKVEDLVKNDDDIINGVRK
B5: Vac8[40–515]^N60R,N62R (domain or fragment, S. cerevisiae, UniProt P39968 40-515, looked up)
chain: QLDFYSGGPLKALTTLVYSDRLRLQRSAALAFAEITEKYVRQVSREVLEPILILLQSQDPQIQVAACAALGNLAVNNENKLLIVEMGGLEPLINQMMGDNVEVQCNAVGCITNLATRDDNKHKIATSGALIPLTKLAKSKHIRVQRNATGALLNMTHSEENRKELVNAGAVPVLVSLLSSTDPDVQYYCTTALSNIAVDEANRKKLAQTEPRLVSKLVSLMDSPSSRVKCQATLALRNLASDTSYQLEIVRAGGLPHLVKLIQSDSIPLVLASVACIRNISIHPLNEGLIVDAGFLKPLVRLLDYKDSEEIQCHAVSTLRNLAASSEKNRKEFFESGAVEKCKELALDSPVSVQSEISACFAILALADVSKLDLLEANILDALIPMTFSQNQEVSGNAAAALANLCSRVNNYTKIIEAWDRPNEGIRGFLIRFLKSDYATFEHIALWTILQLLESHNDKVEDLVKNDDDIINGVRK

Tests used:
AUC = biological target: the molecule itself; assay: AUC
Vac8[40–578] = biological target: T1, Vac8[40–578] (S. cerevisiae, UniProt P39968 40-578); assay: SAXS
T1 sequence (looked up): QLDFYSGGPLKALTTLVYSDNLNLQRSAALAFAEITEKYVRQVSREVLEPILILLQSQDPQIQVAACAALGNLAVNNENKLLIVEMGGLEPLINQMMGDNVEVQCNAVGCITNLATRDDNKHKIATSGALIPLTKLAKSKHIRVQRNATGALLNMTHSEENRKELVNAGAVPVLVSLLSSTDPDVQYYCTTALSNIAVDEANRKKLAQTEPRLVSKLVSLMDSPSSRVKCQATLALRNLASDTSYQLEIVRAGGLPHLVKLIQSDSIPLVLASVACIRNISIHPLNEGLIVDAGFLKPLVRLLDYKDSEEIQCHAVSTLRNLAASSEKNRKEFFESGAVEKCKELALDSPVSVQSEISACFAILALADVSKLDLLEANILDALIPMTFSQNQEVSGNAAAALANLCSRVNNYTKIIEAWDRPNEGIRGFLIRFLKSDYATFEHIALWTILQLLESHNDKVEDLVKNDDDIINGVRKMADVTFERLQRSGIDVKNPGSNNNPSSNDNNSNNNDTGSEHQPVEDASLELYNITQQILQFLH

Vac8[40–515]^N62R = biological target: B4; assay: SEC
Vac8[40–515]^N60R,N62R = biological target: B5; assay: SEC
Vac8[40–515] = biological target: B3; assay: cross-linking
Vac8[40–515]^A51R = biological target: T2, Vac8[40–515]^A51R (S. cerevisiae, UniProt P39968 40-515, A51R); assay: cross-linking
T2 sequence (looked up): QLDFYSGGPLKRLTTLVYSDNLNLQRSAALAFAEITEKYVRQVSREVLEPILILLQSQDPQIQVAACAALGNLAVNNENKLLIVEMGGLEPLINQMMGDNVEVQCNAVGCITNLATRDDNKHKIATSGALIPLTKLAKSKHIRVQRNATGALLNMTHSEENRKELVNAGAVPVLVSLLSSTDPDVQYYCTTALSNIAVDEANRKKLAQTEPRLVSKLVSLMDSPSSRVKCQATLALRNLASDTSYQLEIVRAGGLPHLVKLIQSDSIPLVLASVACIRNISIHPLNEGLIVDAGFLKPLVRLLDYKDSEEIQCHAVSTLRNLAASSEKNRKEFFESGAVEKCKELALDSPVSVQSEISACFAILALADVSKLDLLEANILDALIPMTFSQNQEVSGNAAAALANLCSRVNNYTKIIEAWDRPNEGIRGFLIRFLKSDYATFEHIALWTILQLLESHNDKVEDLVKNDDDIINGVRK

SEC [1] = biological target: the molecule itself; assay: SEC
SEC [2] = biological target: the molecule itself; assay: SEC; remark: listed apart in the source

B1: Vac8[Δ19–33] (full-length Vac8 lacking the H1 helix, residues 19–33) (natural protein, S. cerevisiae, UniProt P39968 1-578, looked up)
chain: MGSCCSCLKDSSDEASVSYLEDKDQLDFYSGGPLKALTTLVYSDNLNLQRSAALAFAEITEKYVRQVSREVLEPILILLQSQDPQIQVAACAALGNLAVNNENKLLIVEMGGLEPLINQMMGDNVEVQCNAVGCITNLATRDDNKHKIATSGALIPLTKLAKSKHIRVQRNATGALLNMTHSEENRKELVNAGAVPVLVSLLSSTDPDVQYYCTTALSNIAVDEANRKKLAQTEPRLVSKLVSLMDSPSSRVKCQATLALRNLASDTSYQLEIVRAGGLPHLVKLIQSDSIPLVLASVACIRNISIHPLNEGLIVDAGFLKPLVRLLDYKDSEEIQCHAVSTLRNLAASSEKNRKEFFESGAVEKCKELALDSPVSVQSEISACFAILALADVSKLDLLEANILDALIPMTFSQNQEVSGNAAAALANLCSRVNNYTKIIEAWDRPNEGIRGFLIRFLKSDYATFEHIALWTILQLLESHNDKVEDLVKNDDDIINGVRKMADVTFERLQRSGIDVKNPGSNNNPSSNDNNSNNNDTGSEHQPVEDASLELYNITQQILQFLH
binding result (AUC): binds

binding result (Vac8[40–578]): binds
binding result (Vac8[40–515]^N62R): binds
binding result (Vac8[40–515]^N60R,N62R): binds
binding result (Vac8[40–515]): binds
binding result (Vac8[40–515]^A51R): binds
B2: tNvj1 (Nvj1 construct comprising residues 229–321) (domain or fragment, S. cerevisiae, UniProt P38881 229-321, looked up)
chain: NREKDCSSSSEVESQSKCRKESTAEPDSLSRDTRTTSSLKSSTSFPISFKGSIDLKSLNQPSSLLHIQVSPTKSSNLDAQVNTEQAYSQPFRY

Binder: B3
binding result (SEC [1]): binds

Binder: B4
binding result (SEC [1]): binds

Binder: B5
binding result (SEC [2]): binds
